Data set [1] has as its system F2-Arg finger 3 Asp2Ala D2A in finger 3 (helix position 2) (Artificial Sequence). The conditions noted are these: phage ELISA; PBS, 50 uM ZnCl2, 20 C. (In an ELISA, binding on a coated surface is turned into a signal by an enzyme label.)
The subject of data set [2] is Zif268 finger 3 Asp2Ala D2A in finger 3 (helix position 2). Conditions: phage ELISA; PBS, 50 uM ZnCl2, 20 C.

The values that follow come from US20040253623.

On to “GCGGTGGCG (double strand) [F2-Arg consensus site]”, for which, in data set [1], the binding signal (fold lower affinity than parent F2-Arg) is 4.

“GCGTGGGCG (double strand) [Zif268 consensus site]” came in with a binding signal (fold lower affinity than wild type) in data set [2] of 4.
